Values belong to the molecule of their own block, whether it stands above or below them.
Assays:
[1] = target: CAR that binds human CD19 (scFv derived from anti-human CD19 antibody clone FMC69, human CD28 and CD3zeta intracellular signaling domains), on human T cells; test: flow cytometry, dose-dependent staining of CD19 CAR T cells, y-axis %Binding; the value stands above the plot, in which only this curve rises
[2] = target: CAR that binds human BCMA (scFv derived from anti-human BCMA antibody clone MSK54, human 41BB and CD3zeta intracellular signaling domains), on human T cells; test: cell-based or functional assay
[3] = target: IL-2R (IL-2 receptor on the BCMA CAR T cells) (human) (UniProt P01589); test: cell-based or functional assay
[4] = target: CAR that binds human BCMA (scFv derived from anti-human BCMA antibody clone MSK54, human 41BB and CD3zeta intracellular signaling domains), on human T cells; test: flow cytometry, staining of BCMA CAR T cells with varying concentrations, Alexa647-labeled anti-FLAG secondary
[5] = target: CAR that binds human BCMA (scFv derived from anti-human BCMA antibody clone MSK54, human 41BB and CD3zeta intracellular signaling domains), on human T cells; test: flow cytometry, anti-CD45 (y) against AF647-tagged BCMA-CH3 (x); CAR only mouse, lower row (CAR T cells without CAR-engager; the text says little to no CD45+ cells persisted); Kidney
[6] = target: CAR that binds human BCMA (scFv derived from anti-human BCMA antibody clone MSK54, human 41BB and CD3zeta intracellular signaling domains), on human T cells; test: flow cytometry, anti-CD45 (y) against AF647-tagged BCMA-CH3 (x); CAR only mouse, lower row (CAR T cells without CAR-engager; the text says little to no CD45+ cells persisted); Blood
[7] = target: CAR that binds human BCMA (scFv derived from anti-human BCMA antibody clone MSK54, human 41BB and CD3zeta intracellular signaling domains), on human T cells; test: flow cytometry, anti-CD45 (y) against AF647-tagged BCMA-CH3 (x); CAR + Treatment mouse (BCMA CAR T cells and BCMA-muIL2); Kidney
[8] = target: CAR that binds human BCMA (scFv derived from anti-human BCMA antibody clone MSK54, human 41BB and CD3zeta intracellular signaling domains), on human T cells; test: flow cytometry, anti-CD45 (y) against AF647-tagged BCMA-CH3 (x); CAR only mouse, lower row (CAR T cells without CAR-engager; the text says little to no CD45+ cells persisted); Bone Marrow Right
[9] = target: CAR that binds human BCMA (scFv derived from anti-human BCMA antibody clone MSK54, human 41BB and CD3zeta intracellular signaling domains), on human T cells; test: flow cytometry, anti-CD45 (y) against AF647-tagged BCMA-CH3 (x); CAR + Treatment mouse (BCMA CAR T cells and BCMA-muIL2); Tumor Eye
[10] = target: CAR that binds human BCMA (scFv derived from anti-human BCMA antibody clone MSK54, human 41BB and CD3zeta intracellular signaling domains), on human T cells; test: flow cytometry, anti-CD45 (y) against AF647-tagged BCMA-CH3 (x); CAR + Treatment mouse (BCMA CAR T cells and BCMA-muIL2); Blood
[11] = target: CAR that binds human BCMA (scFv derived from anti-human BCMA antibody clone MSK54, human 41BB and CD3zeta intracellular signaling domains), on human T cells; test: flow cytometry, anti-CD45 (y) against AF647-tagged BCMA-CH3 (x); CAR only mouse, upper row (CAR T cells without CAR-engager; the text says little to no CD45+ cells persisted); Lymph node
[12] = target: CAR that binds human BCMA (scFv derived from anti-human BCMA antibody clone MSK54, human 41BB and CD3zeta intracellular signaling domains), on human T cells; test: flow cytometry, anti-CD45 (y) against AF647-tagged BCMA-CH3 (x); CAR only mouse, lower row (CAR T cells without CAR-engager; the text says little to no CD45+ cells persisted); Liver
[13] = target: CAR that binds human BCMA (scFv derived from anti-human BCMA antibody clone MSK54, human 41BB and CD3zeta intracellular signaling domains), on human T cells; test: flow cytometry, anti-CD45 (y) against AF647-tagged BCMA-CH3 (x); CAR + Treatment mouse (BCMA CAR T cells and BCMA-muIL2); Spleen
[14] = target: CAR that binds human BCMA (scFv derived from anti-human BCMA antibody clone MSK54, human 41BB and CD3zeta intracellular signaling domains), on human T cells; test: flow cytometry, anti-CD45 (y) against AF647-tagged BCMA-CH3 (x); CAR + Treatment mouse (BCMA CAR T cells and BCMA-muIL2); Liver
[15] = target: CAR that binds human BCMA (scFv derived from anti-human BCMA antibody clone MSK54, human 41BB and CD3zeta intracellular signaling domains), on human T cells; test: flow cytometry, anti-CD45 (y) against AF647-tagged BCMA-CH3 (x); CAR + Treatment mouse (BCMA CAR T cells and BCMA-muIL2); Lung
[16] = target: CAR that binds human BCMA (scFv derived from anti-human BCMA antibody clone MSK54, human 41BB and CD3zeta intracellular signaling domains), on human T cells; test: flow cytometry, anti-CD45 (y) against AF647-tagged BCMA-CH3 (x); CAR only mouse, upper row (CAR T cells without CAR-engager; the text says little to no CD45+ cells persisted); Lung
[17] = target: CAR that binds human BCMA (scFv derived from anti-human BCMA antibody clone MSK54, human 41BB and CD3zeta intracellular signaling domains), on human T cells; test: flow cytometry, anti-CD45 (y) against AF647-tagged BCMA-CH3 (x); CAR only mouse, upper row (CAR T cells without CAR-engager; the text says little to no CD45+ cells persisted); Kidney
[18] = target: CAR that binds human BCMA (scFv derived from anti-human BCMA antibody clone MSK54, human 41BB and CD3zeta intracellular signaling domains), on human T cells; test: flow cytometry, anti-CD45 (y) against AF647-tagged BCMA-CH3 (x); CAR only mouse, upper row (CAR T cells without CAR-engager; the text says little to no CD45+ cells persisted); Blood
[19] = target: CAR that binds human BCMA (scFv derived from anti-human BCMA antibody clone MSK54, human 41BB and CD3zeta intracellular signaling domains), on human T cells; test: flow cytometry, anti-CD45 (y) against AF647-tagged BCMA-CH3 (x); CAR only mouse, upper row (CAR T cells without CAR-engager; the text says little to no CD45+ cells persisted); Bone Marrow Right
[20] = target: CAR that binds human BCMA (scFv derived from anti-human BCMA antibody clone MSK54, human 41BB and CD3zeta intracellular signaling domains), on human T cells; test: flow cytometry, anti-CD45 (y) against AF647-tagged BCMA-CH3 (x); CAR + Treatment mouse (BCMA CAR T cells and BCMA-muIL2); Lymph node
[21] = target: CAR that binds human BCMA (scFv derived from anti-human BCMA antibody clone MSK54, human 41BB and CD3zeta intracellular signaling domains), on human T cells; test: flow cytometry, anti-CD45 (y) against AF647-tagged BCMA-CH3 (x); CAR + Treatment mouse (BCMA CAR T cells and BCMA-muIL2); Bone Marrow Left
[22] = target: CAR that binds human BCMA (scFv derived from anti-human BCMA antibody clone MSK54, human 41BB and CD3zeta intracellular signaling domains), on human T cells; test: flow cytometry, anti-CD45 (y) against AF647-tagged BCMA-CH3 (x); CAR only mouse, lower row (CAR T cells without CAR-engager; the text says little to no CD45+ cells persisted); Bone Marrow Left
[23] = target: CAR that binds human BCMA (scFv derived from anti-human BCMA antibody clone MSK54, human 41BB and CD3zeta intracellular signaling domains), on human T cells; test: flow cytometry, anti-CD45 (y) against AF647-tagged BCMA-CH3 (x); CAR + Treatment mouse (BCMA CAR T cells and BCMA-muIL2); Bone Marrow Right
[24] = target: CAR that binds human BCMA (scFv derived from anti-human BCMA antibody clone MSK54, human 41BB and CD3zeta intracellular signaling domains), on human T cells; test: flow cytometry, anti-CD45 (y) against AF647-tagged BCMA-CH3 (x); CAR only mouse, upper row (CAR T cells without CAR-engager; the text says little to no CD45+ cells persisted); Bone Marrow Left
[25] = target: CAR that binds human BCMA (scFv derived from anti-human BCMA antibody clone MSK54, human 41BB and CD3zeta intracellular signaling domains), on human T cells; test: flow cytometry, anti-CD45 (y) against AF647-tagged BCMA-CH3 (x); CAR only mouse, upper row (CAR T cells without CAR-engager; the text says little to no CD45+ cells persisted); Spleen
[26] = target: CAR that binds human BCMA (scFv derived from anti-human BCMA antibody clone MSK54, human 41BB and CD3zeta intracellular signaling domains), on human T cells; test: flow cytometry, anti-CD45 (y) against AF647-tagged BCMA-CH3 (x); CAR only mouse, upper row (CAR T cells without CAR-engager; the text says little to no CD45+ cells persisted); Liver
[27] = target: CAR that binds human BCMA (scFv derived from anti-human BCMA antibody clone MSK54, human 41BB and CD3zeta intracellular signaling domains), on human T cells; test: flow cytometry, anti-CD45 (y) against AF647-tagged BCMA-CH3 (x); CAR only mouse, lower row (CAR T cells without CAR-engager; the text says little to no CD45+ cells persisted); Lymph node
[28] = target: CAR that binds human BCMA (scFv derived from anti-human BCMA antibody clone MSK54, human 41BB and CD3zeta intracellular signaling domains), on human T cells; test: flow cytometry, anti-CD45 (y) against AF647-tagged BCMA-CH3 (x); CAR only mouse, lower row (CAR T cells without CAR-engager; the text says little to no CD45+ cells persisted); Lung
[29] = target: CAR that binds human BCMA (scFv derived from anti-human BCMA antibody clone MSK54, human 41BB and CD3zeta intracellular signaling domains), on human T cells; test: flow cytometry, dose-dependent staining of BCMA CAR T cells, secondary Alexa647-labeled anti-FLAG antibody, y-axis %Binding
[30] = target: CAR that binds human BCMA (scFv derived from anti-human BCMA antibody clone MSK54, human 41BB and CD3zeta intracellular signaling domains), on human T cells; test: cell-based or functional assay; remark: listed apart in the source

Chain of UniProt P01589 (P01589 22-272, chain 1 of 3): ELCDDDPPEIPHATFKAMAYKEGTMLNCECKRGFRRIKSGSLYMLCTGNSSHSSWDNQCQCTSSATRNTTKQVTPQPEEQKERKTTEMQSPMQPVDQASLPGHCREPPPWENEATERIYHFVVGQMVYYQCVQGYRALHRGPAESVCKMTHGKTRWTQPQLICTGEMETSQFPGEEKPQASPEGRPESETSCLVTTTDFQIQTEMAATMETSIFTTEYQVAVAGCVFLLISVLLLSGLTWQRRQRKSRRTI
Chain of UniProt P01589 (P14784 27-551, chain 2 of 3, further chain): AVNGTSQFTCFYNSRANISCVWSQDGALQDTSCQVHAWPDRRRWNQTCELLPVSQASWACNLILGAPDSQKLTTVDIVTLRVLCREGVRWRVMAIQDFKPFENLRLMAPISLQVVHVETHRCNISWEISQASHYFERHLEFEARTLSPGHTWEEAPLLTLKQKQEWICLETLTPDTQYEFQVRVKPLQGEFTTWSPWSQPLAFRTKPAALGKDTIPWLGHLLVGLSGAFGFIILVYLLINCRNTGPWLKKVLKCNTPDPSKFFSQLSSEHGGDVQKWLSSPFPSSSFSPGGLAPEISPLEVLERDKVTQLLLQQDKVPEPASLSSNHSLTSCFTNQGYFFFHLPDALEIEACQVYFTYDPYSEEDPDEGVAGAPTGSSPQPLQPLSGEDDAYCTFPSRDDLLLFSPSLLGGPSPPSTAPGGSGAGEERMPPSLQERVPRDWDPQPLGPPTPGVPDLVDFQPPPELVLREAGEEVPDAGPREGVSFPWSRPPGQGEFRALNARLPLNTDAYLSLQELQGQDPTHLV
Chain of UniProt P01589 (P31785 23-369, chain 3 of 3, further chain): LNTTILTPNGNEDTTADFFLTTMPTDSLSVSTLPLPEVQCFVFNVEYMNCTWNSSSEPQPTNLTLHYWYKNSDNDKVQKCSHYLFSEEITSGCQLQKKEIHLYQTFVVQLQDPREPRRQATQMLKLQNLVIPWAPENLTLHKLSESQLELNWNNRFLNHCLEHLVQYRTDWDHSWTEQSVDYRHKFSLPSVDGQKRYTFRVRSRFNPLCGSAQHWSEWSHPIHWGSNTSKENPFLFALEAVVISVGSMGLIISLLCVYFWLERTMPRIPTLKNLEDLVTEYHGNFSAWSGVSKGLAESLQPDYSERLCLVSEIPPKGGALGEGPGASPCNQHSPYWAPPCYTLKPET

EC50 [1]: 0.59 nM
Molecule: CD19-muIL2 CAR-engager (from UniProt P15391 20-291)

sensitivity of STAT5 phosphorylation against VHH-muIL2 [2]: > 200 fold | phosphorylation of STAT5 (pY694) in BCMA CAR T cells, EC50 [3]: 14 pM | EC50 [4]: 0.21 nM
Molecule: BCMA-muIL2 CAR-engager (BCMA-CH3-muIL2-muIL2)

phosphorylation of STAT5 (pY694) in BCMA CAR T cells, EC50 [3]: 3.9 nM
Molecule: VHH-muIL2 (control construct with an irrelevant nanobody in place of the BCMA ectodomain in the CH3-muIL2 construct)

percent of cells in the upper right quadrant (CD45+ AF647+) [5]: 0.044% | percent of cells in the upper right quadrant (CD45+ AF647+) [6]: 0.13% | percent of cells in the upper right quadrant (CD45+ AF647+) [7]: 1.69% | percent of cells in the upper right quadrant (CD45+ AF647+) [8]: 0.032% | percent of cells in the upper right quadrant (CD45+ AF647+) [9]: 1.38% | percent of cells in the upper right quadrant (CD45+ AF647+) [10]: 0.69% | percent of cells in the upper right quadrant (CD45+ AF647+) [11]: 1.08% | percent of cells in the upper right quadrant (CD45+ AF647+) [12]: 0.058% | percent of cells in the upper right quadrant (CD45+ AF647+) [13]: 47.4% | percent of cells in the upper right quadrant (CD45+ AF647+) [14]: 3.97% | percent of cells in the upper right quadrant (CD45+ AF647+) [15]: 2.69% | percent of cells in the upper right quadrant (CD45+ AF647+) [16]: 0.18% | percent of cells in the upper right quadrant (CD45+ AF647+) [17]: 0.21% | percent of cells in the upper right quadrant (CD45+ AF647+) [18]: 0.2% | percent of cells in the upper right quadrant (CD45+ AF647+) [19]: 0.02% | percent of cells in the upper right quadrant (CD45+ AF647+) [20]: 12.2% | percent of cells in the upper right quadrant (CD45+ AF647+) [21]: 0.75% | percent of cells in the upper right quadrant (CD45+ AF647+) [22]: 0.013% | percent of cells in the upper right quadrant (CD45+ AF647+) [23]: 1.01% | percent of cells in the upper right quadrant (CD45+ AF647+) [24]: 0.054% | percent of cells in the upper right quadrant (CD45+ AF647+) [25]: 0.00572% | percent of cells in the upper right quadrant (CD45+ AF647+) [26]: 0.13% | percent of cells in the upper right quadrant (CD45+ AF647+) [27]: 5.26% | percent of cells in the upper right quadrant (CD45+ AF647+) [28]: 0.096% | EC50 (read off the curve) [29]: 0.2 nM
B1: BCMA-CH3 (dimeric BCMA lacking the muIL2) (protein)
chain: MLQMAGQCSQNEYFDSLLHACIPCQLRCSSNTPPLTCQRYCNASVTNSVKGTNAEPKSPKSADKTHTAPQPREPQVYTLPPSRDELTKNQVSLTCLVKGFYPSDIAVEWESNGQPENNYKTTPPVLDSDGSFFLYSKLTVDKSRWQQGNVFSCSVMHEALHNHYTQKSLSLSPGK

lowest threshold of induced expression of CD69 in CAR T cells [30]: 0.01 nM
B2: BCMA-CH3-Neo-2/15 CAR-engager (protein)
chain: MLQMAGQCSQNEYFDSLLHACIPCQLRCSSNTPPLTCQRYCNASVTNSVKGTNAEPKSPKSADKTHTAPQPREPQVYTLPPSRDELTKNQVSLTCLVKGFYPSDIAVEWESNGQPENNYKTTPPVLDSDGSFFLYSKLTVDKSRWQQGNVFSCSVMHEALHNHYTQKSLSLSPGKGSHMPKKKIQLHAEHALYDALMILNIVKTNSPPAEEKLEDYAFNFELILEEIARLFESGDQKDEAEKAKRMKEWMKRIKTTASEDEQEEMANAIITILQSWIFS

From patent US20260226184A1
